Results as given in IntAct's records for PubMed 15774581.

B1: Krueppel-like factor 11 (Homo sapiens), O14901 (parent)
chain: MHTPDFAGPDDARAVDIMDICESILERKRHDSERSTCSILEQTDMEAVEALVCMSSWGQRSQKGDLLRIRPLTPVSDSGDVTTTVHMDAATPELPKDFHSLSTLCITPPQSPDLVEPSTRTPVSPQVTDSKACTATDVLQSSAVVARALSGGAERGLLGLEPVPSSPCRAKGTSVIRHTGESPAACFPTIQTPDCRLSDSREGEEQLLGHFETLQDTHLTDSLLSTNLVSCQPCLHKSGGLLLTDKGQQAGWPGAVQTCSPKNYENDLPRKTTPLISVSVPAPPVLCQMIPVTGQSSMLPAFLKPPPQLSVGTVRPILAQAAPAPQPVFVGPAVPQGAVMLVLPQGALPPPAPCAANVMAAGNTKLLPLAPAPVFITSSQNCVPQVDFSRRRNYVCSFPGCRKTYFKSSHLKAHLRTHTGEKPFNCSWDGCDKKFARSDELSRHRRTHTGEKKFVCPVCDRRFMRSDHLTKHARRHMTTKKIPGWQAEVGKLNRIASAESPGSPLVSMPASA
partner: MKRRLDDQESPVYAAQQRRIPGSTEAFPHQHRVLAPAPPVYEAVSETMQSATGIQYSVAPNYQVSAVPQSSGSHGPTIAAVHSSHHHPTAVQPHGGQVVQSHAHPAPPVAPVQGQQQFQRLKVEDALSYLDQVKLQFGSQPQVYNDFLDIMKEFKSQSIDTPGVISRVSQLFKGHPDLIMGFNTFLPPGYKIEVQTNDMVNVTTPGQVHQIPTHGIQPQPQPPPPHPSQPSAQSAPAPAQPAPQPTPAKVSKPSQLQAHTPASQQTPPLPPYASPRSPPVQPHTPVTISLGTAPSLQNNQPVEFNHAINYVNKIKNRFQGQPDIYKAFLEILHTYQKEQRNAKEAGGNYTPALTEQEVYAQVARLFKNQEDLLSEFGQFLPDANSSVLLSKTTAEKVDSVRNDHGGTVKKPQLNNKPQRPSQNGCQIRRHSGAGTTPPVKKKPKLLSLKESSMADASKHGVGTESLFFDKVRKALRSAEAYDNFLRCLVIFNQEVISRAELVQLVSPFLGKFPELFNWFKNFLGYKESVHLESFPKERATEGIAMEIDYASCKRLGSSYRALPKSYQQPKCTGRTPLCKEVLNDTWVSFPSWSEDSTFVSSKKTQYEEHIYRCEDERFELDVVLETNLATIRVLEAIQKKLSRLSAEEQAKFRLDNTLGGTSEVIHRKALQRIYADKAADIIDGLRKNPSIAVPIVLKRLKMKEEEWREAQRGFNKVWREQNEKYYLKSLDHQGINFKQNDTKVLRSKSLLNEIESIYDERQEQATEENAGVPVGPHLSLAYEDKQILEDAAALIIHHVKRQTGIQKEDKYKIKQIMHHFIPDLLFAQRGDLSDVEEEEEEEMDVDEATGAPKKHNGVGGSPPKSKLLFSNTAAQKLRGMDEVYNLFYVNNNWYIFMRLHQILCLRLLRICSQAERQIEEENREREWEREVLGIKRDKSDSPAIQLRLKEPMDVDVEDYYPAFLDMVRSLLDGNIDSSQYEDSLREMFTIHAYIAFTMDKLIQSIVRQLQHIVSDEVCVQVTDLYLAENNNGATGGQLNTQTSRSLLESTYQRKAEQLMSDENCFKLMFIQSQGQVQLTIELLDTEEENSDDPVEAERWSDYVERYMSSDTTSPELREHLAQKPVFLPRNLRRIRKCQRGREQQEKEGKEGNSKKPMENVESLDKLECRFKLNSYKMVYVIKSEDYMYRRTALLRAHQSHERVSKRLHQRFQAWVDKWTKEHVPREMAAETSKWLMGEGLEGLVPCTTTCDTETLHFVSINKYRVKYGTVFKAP

Variants of: B1
Details: with Sin3a

| Variant | effect of a mutation on the interaction |
| --- | --- |
| MHTPDFAGPDDARAVDIMDICESILERKRHDSERSTCSILEQTDMEAVEALVCMSSWGQRSRKGDLLRIRPLTPVSDSGDVTTTVHMDAATPELPKDFHSLSTLCITPPQSPDLVEPSTRTPVSPQVTDSKACTATDVLQSSAVVARALSGGAERGLLGLEPVPSSPCRAKGTSVIRHTGESPAACFPTIQTPDCRLSDSREGEEQLLGHFETLQDTHLTDSLLSTNLVSCQPCLHKSGGLLLTDKGQQAGWPGAVQTCSPKNYENDLPRKTTPLISVSVPAPPVLCQMIPVTGQSSMLPAFLKPPPQLSVGTVRPILAQAAPAPQPVFVGPAVPQGAVMLVLPQGALPPPAPCAANVMAAGNTKLLPLAPAPVFITSSQNCVPQVDFSRRRNYVCSFPGCRKTYFKSSHLKAHLRTHTGEKPFNCSWDGCDKKFARSDELSRHRRTHTGEKKFVCPVCDRRFMRSDHLTKHARRHMTTKKIPGWQAEVGKLNRIASAESPGSPLVSMPASA [Q62R] | increasing interaction |
